Measured values taken from US20230002496A1 (STAIDSON BEIJING BIOPHARMACEUTICALS, published 2023).
Residue numbers refer to the chain shown, from its start.

B1: E35-scFv LS31L (scFv, V domains shown)
VH: QMQLVQSGAEVKKPGASVKVSCKVSGYTLTELSIHWVRQAPGKGLEWMGGFDPEDGETIYAQKFQGRVTMTGDTSTDTAYLELSSLRSEDTALYYCATGRYTSLATTYGFDYWGQGTLVTVSS
VL: EIVMTQSPATLSLSPGERATLSCRASQSVSLYLAWYQQKPGQAPRLLIYGASSRATGIPDRFSGSGSGTDFTLTISRLEPEDFAVYYCQQYDNWPYTFGQGTKLEIK
B2: E35-scFv LS30W (scFv, V domains shown)
VH: B1 VH
VL: B1 VL with S30W, L31S
B3: E35-scFv LS31D (scFv, V domains shown)
VH: B1 VH
VL: B1 VL with L31D
B4: E35-scFv LS30L (scFv, V domains shown)
VH: B1 VH
VL: B1 VL with S30L, L31S
B5: E35-scFv LS30F (scFv, V domains shown)
VH: B1 VH
VL: B1 VL with S30F, L31S
B6: E35-scFv LY32V (scFv, V domains shown)
VH: B1 VH
VL: B1 VL with L31S, Y32V
B7: E35-scFv LS28L (scFv, V domains shown)
VH: B1 VH
VL: B1 VL with S28L, L31S
B8: E35-scFv LS31I (scFv, V domains shown)
VH: B1 VH
VL: B1 VL with L31I
B9: E35-scFv LS28W (scFv, V domains shown)
VH: B1 VH
VL: B1 VL with S28W, L31S
B10: E35-scFv LS30T (scFv, V domains shown)
VH: B1 VH
VL: B1 VL with S30T, L31S
B11: E35-scFv LY32F (scFv, V domains shown)
VH: B1 VH
VL: B1 VL with L31S, Y32F
B12: E35-scFv LS30Y (scFv, V domains shown)
VH: B1 VH
VL: B1 VL with S30Y, L31S
B13: E35-scFv LS30K (scFv, V domains shown)
VH: B1 VH
VL: B1 VL with S30K, L31S
B14: E35-scFv LS28P (scFv, V domains shown)
VH: B1 VH
VL: B1 VL with S28P, L31S
B15: E35-scFv LY32T (scFv, V domains shown)
VH: B1 VH
VL: B1 VL with L31S, Y32T
B16: E35-scFv LS28E (scFv, V domains shown)
VH: B1 VH
VL: B1 VL with S28E, L31S
B17: E35-scFv LS31E (scFv, V domains shown)
VH: B1 VH
VL: B1 VL with L31E
B18: E35-scFv LY32M (scFv, V domains shown)
VH: B1 VH
VL: B1 VL with L31S, Y32M
B19: E35-scFv LS28K (scFv, V domains shown)
VH: B1 VH
VL: B1 VL with S28K, L31S
B20: E35-scFv LS30V (scFv, V domains shown)
VH: B1 VH
VL: B1 VL with S30V, L31S
B21: E35-scFv LS28Q (scFv, V domains shown)
VH: B1 VH
VL: B1 VL with S28Q, L31S
B22: E35-scFv LS30G (scFv, V domains shown)
VH: B1 VH
VL: B1 VL with S30G, L31S
B23: E35-scFv LS28V (scFv, V domains shown)
VH: B1 VH
VL: B1 VL with S28V, L31S
B24: E35-scFv LS30E (scFv, V domains shown)
VH: B1 VH
VL: B1 VL with S30E, L31S
B25: E35-scFv LY32W (scFv, V domains shown)
VH: B1 VH
VL: B1 VL with L31S, Y32W
B26: E35-scFv LS28I (scFv, V domains shown)
VH: B1 VH
VL: B1 VL with S28I, L31S
B27: E35-scFv LS30A (scFv, V domains shown)
VH: B1 VH
VL: B1 VL with S30A, L31S
B28: E35-scFv LS28A (scFv, V domains shown)
VH: B1 VH
VL: B1 VL with S28A, L31S
B29: E35-scFv LY32L (scFv, V domains shown)
VH: B1 VH
VL: B1 VL with L31S, Y32L
B30: E35-scFv LS30R (scFv, V domains shown)
VH: B1 VH
VL: B1 VL with S30R, L31S
B31: E35-scFv LS28T (scFv, V domains shown)
VH: B1 VH
VL: B1 VL with S28T, L31S
B32: E35-scFv LS30C (scFv, V domains shown)
VH: B1 VH
VL: B1 VL with S30C, L31S
B33: E35-scFv LS28R (scFv, V domains shown)
VH: B1 VH
VL: B1 VL with S28R, L31S
B34: E35-scFv LY32Q (scFv, V domains shown)
VH: B1 VH
VL: B1 VL with L31S, Y32Q
B35: E35-scFv LS31W (scFv, V domains shown)
VH: B1 VH
VL: B1 VL with L31W
B36: E35-scFv LS31G (scFv, V domains shown)
VH: B1 VH
VL: B1 VL with L31G
B37: E35-scFv LS28F (scFv, V domains shown)
VH: B1 VH
VL: B1 VL with S28F, L31S
B38: E35-scFv (scFv, V domains shown)
VH: B1 VH
VL: B1 VL with L31S
B39: E35-scFv LS30N (scFv, V domains shown)
VH: B1 VH
VL: B1 VL with S30N, L31S
B40: E35-scFv LS30M (scFv, V domains shown)
VH: B1 VH
VL: B1 VL with S30M, L31S
B41: E35-scFv LS28H (scFv, V domains shown)
VH: B1 VH
VL: B1 VL with S28H, L31S

target: T1, human GM-CSFRα, full length on cells (human, UniProt P15509 23-400); assay: cell-based or functional assay
T1 sequence: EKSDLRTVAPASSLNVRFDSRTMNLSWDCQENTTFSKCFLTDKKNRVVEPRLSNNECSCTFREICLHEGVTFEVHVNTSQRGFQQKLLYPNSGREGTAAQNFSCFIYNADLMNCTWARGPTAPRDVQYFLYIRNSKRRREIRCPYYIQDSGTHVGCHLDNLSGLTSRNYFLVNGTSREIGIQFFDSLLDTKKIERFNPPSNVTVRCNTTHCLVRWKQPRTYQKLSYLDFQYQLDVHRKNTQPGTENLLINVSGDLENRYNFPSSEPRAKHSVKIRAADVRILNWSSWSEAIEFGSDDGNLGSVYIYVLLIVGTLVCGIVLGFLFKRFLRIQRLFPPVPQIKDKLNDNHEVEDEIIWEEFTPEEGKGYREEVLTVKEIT

| Binder | IC50, TF-1 cell proliferation [µg/mL] |
| --- | --- |
| B1 | 0.235 |
| B2 | 0.071 |
| B3 | 1.34 |
| B4 | 0.069 |
| B5 | 0.16 |
| B6 | 1.23 |
| B7 | 0.067 |
| B8 | 0.681 |
| B9 | 0.06 |
| B10 | 0.092 |
| B11 | 0.21 |
| B12 | 0.082 |
| B13 | 0.083 |
| B14 | 0.089 |
| B15 | 0.51 |
| B16 | 0.111 |
| B17 | 0.832 |
| B18 | 0.42 |
| B19 | 0.082 |
| B20 | 0.124 |
| B21 | 0.154 |

| Binder | IC50, TF-1 cell proliferation [µg/mL] |
| --- | --- |
| B22 | 0.092 |
| B23 | 0.104 |
| B24 | 0.1 |
| B25 | 1.17 |
| B26 | 0.091 |
| B27 | 0.078 |
| B28 | 0.116 |
| B29 | 0.07 |
| B30 | 0.088 |
| B31 | 0.088 |
| B32 | 0.221 |
| B33 | 0.077 |
| B34 | 0.87 |
| B35 | 0.649 |
| B36 | 0.279 |
| B37 | 0.1 |
| B38 | 0.12 |
| B39 | 0.132 |
| B40 | 0.073 |
| B41 | 0.058 |
